Data: patent US20030180282A1, “Method of treatment of thrombotic events” (priority 2002, published 2003)

Key:
platelets [1] = assay: rapid platelet-function assay (Ultegra); format: cell-based, human; conditions: TNK 12 μg/mL, t-PA 4 μg/mL
Procedure: Blood samples for the in vitro study were obtained from 9 healthy volunteers. None of the subjects smoked or had hypertension, diabetes, or an abnormal hematocrit. None had received aspirin or any other antiplatelet drugs. All subjects underwent blood sampling after at least 30 minutes of rest and 2 or more hours of fasting. Blood was drawn from an antecubital vein between 8 am and 10 am in order to avoid any diurnal influence. A 21-gauge butterfly needle was used to draw blood into a tube containing 3.8% sodium citrate (1:9 volume); the first 1.5 mL of free running blood was discarded. One tube was kept as an internal control. A second tube was incubated with tenecteplase (TNK) for 30 minutes at room temperature in order to achieve a final concentration of 12 μg/mL. The third tube was similarly incubated with alteplase (t-PA) to achieve a concentration of 4 μg/mL. The concentrations of TNK and t-PA that were chosen approximated conventional plasma levels observed in patients receiving TNK and t-PA bolus (30 mg, and 15 mg, respectively; data on file, Genentech, Inc., South San Francisco, Calif.). Fresh solutions of TNK and t-PA were prepared in Dulbecco's phosphate buffered saline (DPBS) ex tempore on the morning of the platelet studies.
With rapid platelet-function assay (RPFA (Ultegra®); Accumetrics, Inc., San Diego, Calif.), polystyrene beads coated with fibrinogen are placed in a cartridge along with a peptide that activates the thrombin receptor. A whole blood citrate mixture is added to the cartridge, and agglutination between platelets and coated beads is recorded. The data mirror turbidometric platelet aggregation and reflect the degree of platelet glycoprotein IIb/IIIa blockade.
For all comparisons, statistical analyses were done by using repeated measures ANOVA. Post hoc comparison was performed by use of the Bonferroni t-test to identify specific differences in platelet aggregation and receptor expression between patients treated with TNK and t-PA, and controls. […] Normally distributed data were expressed as mean±SE, and skewed data as median (range). […]

platelets [2] = assay: flow cytometry of platelet surface receptor expression in AMI patients during first 24 hours after r-PA or t-PA; format: in vivo, human
Description: Twenty-three consecutive patients admitted to the emergency rooms of St. Agnes Hospital, or the Union Memorial Hospital between July and December of 1996 with a diagnosis of acute myocardial infarction were included. All patients were enrolled in the randomized trial of Reteplase (r-PA) versus accelerated Alteplase (t-PA) for the treatment of acute myocardial infarction, (GUSTO-III trial).
Blood samples for PA, and for flow cytometric studies were taken at prespecified intervals as follows: in the emergency room immediately before administration of the thrombolytic therapy and then in the coronary care unit at 3 hours, 6 hours, 12 hours, and finally at 24 hours after initiation of the r-PA or t-PA therapy.
Thirteen patients randomized to r-PA received a double bolus, 10+10 MU thirty minutes apart. Ten patients received t-PA in the accelerated regimen as a 15 mg bolus, then 0.75 mg/kg over 30 minutes, and then 0.50 mg/kg over 60 minutes. During the baseline sampling every patient had received 325 mg of aspirin and each day thereafter, at least 5,000 U of intravenous heparin. Following the administration of thrombolytic therapy all patients received a continuous infusion of heparin for the first 24 hours following thrombolysis as recommended in the GUSTO-III protocol.
The schedule of blood drawing, sample preparation and processing were critical issues of the study design, and were monitored by an independent observer. The actual timing of blood collection for the baseline sample was 9.5±1.4 minutes before the start of thrombolytic therapy; 174.6±21.8 minutes for the 3 hours sample; 371.1±24.2 minutes for 6 hours sample; 709.4±17.8 minutes for 12 hours sample; and 1402.9±18.8 minutes for 24 hours sample. Samples were processed within one hour after blood drawing. […] The reasons for early termination were as follows: patient transfer for emergency coronary angioplasty (3 patients), and inability to obtain blood sample (1 patient). Twenty three baseline samples; twenty two samples collected at 3 hours; twenty samples collected at 6 hours; twenty samples collected at 12 hours; and nineteen samples collected at 24 hours were included in the study analysis.
For flow cytometric analysis, venous blood (8 ml) was collected in a plastic tube containing 2 ml of acid-citrate-dextrose (ACD) (7.3 g citric acid, 22.0 g sodium citrate ×2H2O and 24.5 glucose in 1000 ml distilled water) and mixed well. The blood-ACD mixture was centrifuged at 1000 r.p.m. for 10 minutes at room temperature. The upper ⅔ of the platelet-rich plasma (PRP) was then collected and adjusted to pH=6.5 by adding ACD. The PRP was then centrifuged at 3000 r.p.m. for 10 minutes. The supernatant was removed and the platelet pellet was gently resuspended in 4 cc of the washing buffer (10 mM Tris/HCl, 0.15 M NaCl, 20 mM EDTA, pH=7.4). Platelets were washed 4 times in the washing buffer, and an additional four times in TBS (10 mM Tris, 0.15 M NaCl, pH=7.4). All cells were then divided into ten plastic capped tubes. Nine portions of washed platelets were incubated with 5 μl fluorescein isothiocyanate (FITC)-conjugated antibodies in the dark at +4° C. for 30 minutes, and one part remained unstained and served as a negative control. Surface antigen expression was measured with monoclonal murine anti-human antibodies: CD9 (p24); CD41a (IIb/IIIa, (IIb(3); CD42b (Ib); CD61(IIIa) (DAKO Corporation, Carpinteria Calif.); CD49b (VLA-2, or (2(1); CD62p (P selectin); CD31 (PECAM-1); CD 41b (IIb); and CD51/CD61 (vitronectin receptor, (v(3) (PharMingen, San Diego Calif.). After incubation, the cells were washed three times with TBS and resuspended in 0.25 ml of 1% paraformaldehyde. Samples were stored in the refrigerator at +4° C., and analyzed on a Becton Dickinson FACScan™ flow cytometry with laser output of 15 mw, excitation at 488 mm, and emission detection at 530±30 nm. […]

[3] = "accelerated" regimen, GUSTO trial; cited from earlier work

B1: t-PA: recombinant tissue plasminogen activator, thrombolytic agent (Genentech) (protein, UniProt P00750 36-562, looked up)
Tissue-type plasminogen …: SYQVICRDEKTQMIYQQHQSWLRPVLRSNRVEYCWCNSGRAQCHSVPVKSCSEPRCFNGGTCQQALYFSDFVCQCPEGFAGKCCEIDTRATCYEDQGISYRGTWSTAESGAECTNWNSSALAQKPYSGRRPDAIRLGLGNHNYCRNPDRDSKPWCYVFKAGKYSSEFCSTPACSEGNSDCYFGNGSAYRGTHSLTESGASCLPWNSMILIGKVYTAQNPSAQALGLGKHNYCRNPDGDAKPWCHVLKNRRLTWEYCDVPSCSTCGLRQYSQPQFRIKGGLFADIASHPWQAAIFAKHRRSPGERFLCGGILISSCWILSAAHCFQERFPPHHLTVILGRTYRVVPGEEEQKFEVEKYIVHKEFDDDTYDNDIALLQLKSDSSRCAQESSVVRTVCLPPADLQLPDWTECELSGYGKHEALSPFYSERLKEAHVRLYPSSRCTSQHLLNRTVTDNMLCAGDTRSGGPQANLHDACQGDSGGPLVCLNDGRMTLVGIISWGLGCGQKDVPGVYTKVTNYLDWIRDNMRP
With B1 as the molecule, how does the “platelet activation units (Ultegra) compared with DPBS” value (platelets [1]) read?
The value was “reduction”.

And the “glycoprotein IIIa expression compared to baseline” value (platelets [2]; 12 hours)?
The value was “not after t-PA therapy”.

What about the “glycoprotein Ib expression compared to baseline” value (platelets [2]; 12 hours) of the same molecule?
Its value is “significant inhibition”.

What about the “platelet vitronectin receptor expression” value (platelets [2]; 12 hours after thrombolysis) of the same molecule?
The value was “significant increase”.

What about the “glycoprotein IIIa expression compared to baseline” value (platelets [2]; 24 hours) of the same molecule?
The value was “not after t-PA therapy”.

And the “glycoprotein IIb/IIIa expression compared to baseline” value (platelets [2]; 24 hours)?
Its value is “elevated”.

And the “p24 (CD 9) expression compared to baseline” value (platelets [2]; 24 hours)?
Its value is “higher”.

And the “platelet vitronectin receptor expression” value (platelets [2]; 24 hours after thrombolysis)?
Its value is “trended toward the baseline”.

And the “P-selectin expression, early change” value (platelets [2]; early)?
Its value is “early significant decrease”.

What about the “p24 (CD 9) expression compared to baseline” value (platelets [2]; early time points) of the same molecule?
Its value is “no early receptor inhibition”.

What about the “P-selectin expression, later change” value (platelets [2]; following the early decrease) of the same molecule?
Its value is “significant increase”.

And the “benefit in mortality reduction” value [3]?
Its value is “further benefit”.
